Earlier results in article PMC3486867.

Molecular target: Asp408 (UniProt position 408, GLLVDDAIVVV)
Test: chemical modification (inferred from the title of ref 54: site-directed mutagenesis and carbodiimide labeling)

Substance: Multidrug transporter AcrB (not stated (Escherichia coli inferred))
- pKa: 7.4
